Experimental findings from patent US20190225692A1 (JUNO THERAPEUTICS, published 2019) are described below.

This assay has as its target T1, HLA-A2/E7 (11-19) tetramer (human; HPV 16).
T1 construct: also called E7(11-19) peptide-MHC tetramer; E7 (11-19)-loaded tetramer
As to the kind of experiment: tetramer flow cytometry; transfected 1:1 CD4+ and CD4+/CD8+ Jurkat-derived cells.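 Also: cells transiently transfected with TCR plasmids, stained 48 h later with HLA-A*02:01 peptide-MHC tetramer plus anti-CD8 antibody, read by flow cytometry to assess CD8-independent tetramer binding.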

Experimental: For transfection, the CD4+ and CD4+/CD8+ cell mixtures were transiently transfected with TCR-encoding plasmids and 48 hours after transfection, cells were assessed by flow cytometry for (1) binding of the target peptide in the context of an MHC molecule (HLA:A02:01) by staining with an E6(29-38) peptide- or an E7(11-19) peptide-MHC tetramer reagent, and/or (2) CD8+ independent binding of the target by co-staining the tetramer-labeled cells with an anti-CD8 antibody.

B1: TCR 31 (codon optimized, cysteine modified version) (TCR, V domains shown)
V domain 1: DQQVKQNSPSLSVQEGRISILNCDYTNSMFDYFLWYKKYPAEGPTFLISISSIKDKNEDGRFTVFLNKSAKHLSLHIVPSQPGDSAVYFCAASERGTYKYIFGTGTRLKVLA
V domain 2: GAGVSQSPSNKVTEKGKDVELRCDPISGHTALYWYRQSLGQGLEFLIYFQGNSAPDKSGLPSDRFSAERTGGSVSTLTIQRTQQEDSAVYLCASSRFLGSTDTQYFGPGTRLTVLE
As for B1, the “% cells in E7 tet+/CD8+ quadrant” value worked out at 4.52%, the “% cells in E7 tet+/CD8- quadrant” value was determined as 0.042%, the “% cells in E7 tet-/CD8+ quadrant” value amounted to 21.1% and the “% cells in E7 tet-/CD8- quadrant” value amounted to 74.3%.

B2: TCR 32 (codon optimized, cysteine modified version) (TCR, V domains shown)
V domain 1: TQLLEQSPQFLSIQEGENLTVYCNSSSVFSSLQWYRQEPGEGPVLLVTVVTGGEVKKLKRLTFQFGDARKDSSLHITAAQPGDTGLYLCAGGSNYKLTFGKGTLLTVNP
V domain 2: DSGVTQTPKHLITATGQRVTLRCSPRSGDLSVYWYQQSLDQGLQFLIQYYNGEERAKGNILERFSAQQFPDLHSELNLSSLELGDSALYFCASSVGGDHSDEQFFGPGTRLTVLE
For B2, the “% cells in E7 tet+/CD8+ quadrant” value came to 25.3%, the “% cells in E7 tet+/CD8- quadrant” value was determined as 33.5%, the “% cells in E7 tet-/CD8+ quadrant” value turned out to be 7.53% and the “% cells in E7 tet-/CD8- quadrant” value came out at 33.7%.

B3: TCR 43 (codon optimized, cysteine modified version) (TCR, V domains shown)
V domain 1: QKEVEQNSGPLSVPEGAIASLNCTYSDRGSQSFFWYRQYSGKSPELIMFIYSNGDKEDGRFTAQLNKASQYVSLLIRDSQPSDSATYLCAVNVPTSGTYKYIFGTGTRLKVLA
V domain 2: EPEVTQTPSHQVTQMGQEVILRCVPISNHLYFYWYRQILGQKVEFLVSFYNNEISEKSEIFDDQFSVERPDGSNFTLKIRSTKLEDSAMYFCASTPRDSYEQYFGPGTRLTVTE
Regarding B3, the “% cells in E7 tet+/CD8+ quadrant” value was 3.82%, the “% cells in E7 tet+/CD8- quadrant” value came to 1.88%, the “% cells in E7 tet-/CD8+ quadrant” value was determined as 37.6% and the “% cells in E7 tet-/CD8- quadrant” value turned out to be 56.7%.

B4: TCR 33 (codon optimized, cysteine modified version) (TCR, V domains shown)
V domain 1: QKEVEQNSGPLSVPEGAIASLNCTYSDRGSQSFFWYRQYSGKSPELIMFIYSNGDKEDGRFTAQLNKASQYVSLLIRDSQPSDSATYLCAVNAHHTGGFKTIFGAGTRLFVKA
V domain 2: EPEVTQTPSHQVTQMGQEVILRCVPISNHLYFYWYRQILGQKVEFLVSFYNNEISEKSEIFDDQFSVERPDGSNFTLKIRSTKLEDSAMYFCASTPRDTYEQYFGPGTRLTVTE
In the case of B4, the “% cells in E7 tet+/CD8+ quadrant” value turned out to be 22.6%, the “% cells in E7 tet+/CD8- quadrant” value is 14%, the “% cells in E7 tet-/CD8+ quadrant” value was 12.8% and the “% cells in E7 tet-/CD8- quadrant” value was 50.6%.

B5: TCR 49 (codon optimized, cysteine modified version) (TCR, V domains shown)
V domain 1: QKEVEQNSGPLSVPEGAIASLNCTYSDRGSQSFFWYRQYSGKSPELIMFIYSNGDKEDGRFTAQLNKASQYVSLLIRDSQPSDSATYLCAVNIGTSGTYKYIFGTGTRLKVLA
V domain 2: EPEVTQTPSHQVTQMGQEVILRCVPISNHLYFYWYRQILGQKVEFLVSFYNNEISEKSEIFDDQFSVERPDGSNFTLKIRSTKLEDSAMYFCASTPRYSYEQYFGPGTRLTVTE
As for B5, the “% cells in E7 tet+/CD8+ quadrant” value was 5.54%, the “% cells in E7 tet+/CD8- quadrant” value came to 3.06%, the “% cells in E7 tet-/CD8+ quadrant” value was determined as 27.2% and the “% cells in E7 tet-/CD8- quadrant” value turned out to be 64.3%.

B6: TCR 34 (codon optimized, cysteine modified version) (TCR, V domains shown)
V domain 1: ELKVEQNPLFLSMQEGKNYTIYCNYSTTSDRLYWYRQDPGKSLESLFVLLSNGAVKQEGRLMASLDTKARLSTLHITAAVHDLSATYFCAVSGTYKYIFGTGTRLKVLA
V domain 2: ETGVTQSPTHLIKTRGQQVTLRCSSQSGHNTVSWYQQALGQGPQFIFQYYREEENGRGNFPPRFSGLQFPNYSSELNVNALELDDSALYLCASSSYAGSYEQYFGPGTRLTVTE
Consider B6, for which the “% cells in E7 tet+/CD8+ quadrant” value was 26.3%, the “% cells in E7 tet+/CD8- quadrant” value worked out at 26%, the “% cells in E7 tet-/CD8+ quadrant” value was 6.85% and the “% cells in E7 tet-/CD8- quadrant” value was 40.9%.
